Test results from patent publication WO2001079494A1.

Molecular target: human TPO receptor (MPL) expressed on Ba/F3 cells (human) (UniProt P40238)
Assay: cell-based or functional assay

Binder	ED50, proliferation of BaF/Mpl cells (WST-8)
12B5 antibody (IgG) (antibody, from another filing) scFv: QVQLVQSGGGLVRPGGSLSLSCAVSGITLRTYGMHWVRQAPGKGLEWVAGISFDGRSEYYADSVQGRFTISRDSSKNTLYLQMNSLRAEDTAVYYCARGAHYGFDIWGQGTMVTVSSGGGGTGGGGSGGGGSDIQMTQSPSTLSASIGDRVTITCRASEGIYHWLAWYQQKPGKAPKLLIYKASSLASGAPSRFSGSGSGTDFTLTISSLQPDDFATYYCQQYSNYPLTFGGGTKLEIK	0.029 µM
12B5 Fab (Fab, from another filing) scFv: QVQLVQSGGGLVRPGGSLSLSCAVSGITLRTYGMHWVRQAPGKGLEWVAGISFDGRSEYYADSVQGRFTISRDSSKNTLYLQMNSLRAEDTAVYYCARGAHYGFDIWGQGTMVTVSSGGGGTGGGGSGGGGSDIQMTQSPSTLSASIGDRVTITCRASEGIYHWLAWYQQKPGKAPKLLIYKASSLASGAPSRFSGSGSGTDFTLTISSLQPDDFATYYCQQYSNYPLTFGGGTKLEIK	34.7 µM
